These results are taken from patent US20240383953A1 (BAYLOR COLLEGE OF MEDICINE, published 2024).

This data set deals with the molecule itself. Put plainly: DSSO chemical crosslinking in HEK 293T cells. From the text: Applicant tested if endogenous NANOG could spontaneously assemble in H9 human embryonic stem cells (ESCs) as well as nucleofected NANOG in differentiated HEK 293T mammalian cells.

B1: NANOG ΔWR deletion mutant expressed in HEK 293T cells (other, human, UniProt Q9H9S0 1-305, looked up)
chain: MSVDPACPQSLPCFEASDCKESSPMPVICGPEENYPSLQMSSAEMPHTETVSPLPSSMDLLIQDSPDSSTSPKGKQPTSAEKSVAKKEDKVPVKKQKTRTVFSSTQLCVLNDRFQRQKYLSLQQMQELSNILNLSYKQVKTWFQNQRMKSKRWQKNNWPKNSNGVTQKASAPTYPSLYSSYHQGCLVNPTGNLPMYNCGEESLQSCMQFQPNSPASDLEAALEAAGEGLNVIQQTTRYFSTPQTMDLFLNYSMNMQPEDV
notes: whole, on cells; also called WR mutants
On to B1, for which the binding result was “no binding”.
